This experiment addresses C3 ligand for CR2 deposited on CHO cells (human) (UniProt P01024). As to the kind of experiment: cell-based or functional assay.

This note sets out measurements from patent US20080267980A1.

B1: CR2-DAF (protein)
chain: ISCGSPPPILNGRISYYSTPIAVGTVIRYSCSGTFRLIGEKSLLCITKDKVDGTWDKPAPKCEYFNKYSSCPEPIVPGGYKIRGSTPYRHGDSVTFACKTNFSMNGNKSVWCQANNMWGPTRLPTCVSVFPLECPALPMIHNGHHTSENVGSIAPGLSVTYSCESGYLLVGEKIINCLSSGKWSAVPPTCEEARCKSLGRFPNGKVKEPPILRVGVTANFFCDEGYRLQGPPSSRCVIAGQGVAWTKMPVCGGGSGGGGSDCGLPPDVPNAQPALEGRTSFPEDTVITYKCEESFVKIPGEKDSVICLKGSQWSDIEEFCNRSCEVPTRLNSASLKQPYITQNYFPVGTVVEYECRPGYRREPSLSPKLTCLQNLKWSTAVEFCKKKSCPNPGEIRNGQIDVPGGILFGATISFSCNTGYKLFGSTSSFCLISGSSVQWSDPLPECREIYCPAPPQIDNGIIQGERDHYGYRQSVTYACNKGFTMIGEHSIYCTV
As for B1, the 50% inhibition of CHO cell lysis was 18 nM.

B2: CR2-CD59 (protein)
chain: ISCGSPPPILNGRISYYSTPIAVGTVIRYSCSGTFRLIGEKSLLCITKDKVDGTWDKPAPKCEYFNKYSSCPEPIVPGGYKIRGSTPYRHGDSVTFACKTNFSMNGNKSVWCQANNMWGPTRLPTCVSVFPLECPALPMIHNGHHTSENVGSIAPGLSVTYSCESGYLLVGEKIINCLSSGKWSAVPPTCEEARCKSLGRFPNGKVKEPPILRVGVTANFFCDEGYRLQGPPSSRCVIAGQGVAWTKMPVCSGGGGSLQCYNCPNPTADCKTAVNCSSDFDACLITKAGLQVYNKCWKFEHCNFNDVTTRLRENELTYYCCKKDLCNFNEQLEN
For B2, the 50% inhibition of CHO cell lysis stood at 102 nM.
